For this experiment, the target named is Cy3-labeled human histone nucleosome core particle reconstituted on the Widom 601 sequence (human, Cy3-maleimide on K119C). As to the kind of experiment: single-molecule fluorescence imaging on a tethered nucleosome (SMADNE, LUMICKS C-trap); Cy3-labeled undamaged 601 NCP ligated into 6 kb biotinylated DNA handles and tethered between optically trapped streptavidin beads, 4–5 pN tension; tagged proteins from nuclear extract; lifetimes from CRTD; KD from koff, apparent kon and protein concentration. The following applies: one partner purified.

B1: Halo 635-ZnF-BRCT LIG3α (domain or fragment)
chain: MAEQRFCVDYAKRGTAGCKKCKEKIVKGVCRIGKVVPNPFSESGGDMKEWYHIKCMFEKLERARATTKKIEDLTELEGWEELEDNEKEQITQHIADLSSKAAGTPKKKAVVQAKLTTTGQVTSPVKGASFVTSTNPRKFSGFSAKPNNSGEAPSSPTPKRSLSSSKCDPEKADFTVVAGDEGSSTTGGSSEENKGPSGSAVSRKAPSKPSASTKKAEGKLSNSNSKDGNMQTAKPSAMKVGEKLATKSSPVKVGEKRKAADETLCQTKVLLDIFTGVRLYLPPSTPDFSRLRRYFVAFDGDLVQEFDMTSATHVLGSRDKNPAAQQVSPEWIWACIRKRRLVAPC
modifications: Janelia Fluor 635 HaloTag ligand on the HaloTag
Turning to B1, the Kd is 1.1 ± 0.3 nM.

(Values after article PMC11952658, “The zinc finger of DNA Ligase 3α binds to nucleosomes via an arginine anchor” (Research Square, 2025).)
